Data published in patent US20230048200.

Target: Human type 1 atelo-collagen (UniProt P02452)
Sequence (P02452 179-1192, chain 1 of 2): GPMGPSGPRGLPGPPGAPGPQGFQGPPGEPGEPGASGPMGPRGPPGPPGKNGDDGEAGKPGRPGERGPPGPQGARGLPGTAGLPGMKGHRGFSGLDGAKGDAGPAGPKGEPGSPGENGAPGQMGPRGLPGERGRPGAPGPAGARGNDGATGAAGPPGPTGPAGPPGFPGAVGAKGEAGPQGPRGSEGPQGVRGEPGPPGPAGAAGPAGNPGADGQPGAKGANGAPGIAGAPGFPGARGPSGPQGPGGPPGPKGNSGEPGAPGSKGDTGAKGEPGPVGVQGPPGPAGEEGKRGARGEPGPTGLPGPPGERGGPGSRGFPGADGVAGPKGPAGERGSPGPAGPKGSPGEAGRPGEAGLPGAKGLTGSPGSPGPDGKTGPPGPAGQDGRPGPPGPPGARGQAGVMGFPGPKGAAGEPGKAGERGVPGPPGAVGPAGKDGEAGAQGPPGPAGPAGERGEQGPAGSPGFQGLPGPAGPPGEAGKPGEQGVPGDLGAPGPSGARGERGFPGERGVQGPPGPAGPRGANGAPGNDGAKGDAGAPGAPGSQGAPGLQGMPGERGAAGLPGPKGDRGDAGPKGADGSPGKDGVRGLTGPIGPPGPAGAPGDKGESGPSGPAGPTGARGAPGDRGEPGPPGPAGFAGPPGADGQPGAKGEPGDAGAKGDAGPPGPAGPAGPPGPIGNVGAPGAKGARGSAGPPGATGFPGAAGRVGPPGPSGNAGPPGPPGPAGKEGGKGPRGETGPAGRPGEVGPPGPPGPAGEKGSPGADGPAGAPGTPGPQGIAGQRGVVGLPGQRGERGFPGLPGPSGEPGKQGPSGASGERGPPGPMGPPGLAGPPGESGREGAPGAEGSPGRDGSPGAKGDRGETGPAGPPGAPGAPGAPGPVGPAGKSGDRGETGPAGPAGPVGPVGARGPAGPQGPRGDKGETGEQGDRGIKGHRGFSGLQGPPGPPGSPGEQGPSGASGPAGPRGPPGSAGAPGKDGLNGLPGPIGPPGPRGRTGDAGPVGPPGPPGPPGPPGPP
Sequence (chain, as listed by the source, chain 2 of 2): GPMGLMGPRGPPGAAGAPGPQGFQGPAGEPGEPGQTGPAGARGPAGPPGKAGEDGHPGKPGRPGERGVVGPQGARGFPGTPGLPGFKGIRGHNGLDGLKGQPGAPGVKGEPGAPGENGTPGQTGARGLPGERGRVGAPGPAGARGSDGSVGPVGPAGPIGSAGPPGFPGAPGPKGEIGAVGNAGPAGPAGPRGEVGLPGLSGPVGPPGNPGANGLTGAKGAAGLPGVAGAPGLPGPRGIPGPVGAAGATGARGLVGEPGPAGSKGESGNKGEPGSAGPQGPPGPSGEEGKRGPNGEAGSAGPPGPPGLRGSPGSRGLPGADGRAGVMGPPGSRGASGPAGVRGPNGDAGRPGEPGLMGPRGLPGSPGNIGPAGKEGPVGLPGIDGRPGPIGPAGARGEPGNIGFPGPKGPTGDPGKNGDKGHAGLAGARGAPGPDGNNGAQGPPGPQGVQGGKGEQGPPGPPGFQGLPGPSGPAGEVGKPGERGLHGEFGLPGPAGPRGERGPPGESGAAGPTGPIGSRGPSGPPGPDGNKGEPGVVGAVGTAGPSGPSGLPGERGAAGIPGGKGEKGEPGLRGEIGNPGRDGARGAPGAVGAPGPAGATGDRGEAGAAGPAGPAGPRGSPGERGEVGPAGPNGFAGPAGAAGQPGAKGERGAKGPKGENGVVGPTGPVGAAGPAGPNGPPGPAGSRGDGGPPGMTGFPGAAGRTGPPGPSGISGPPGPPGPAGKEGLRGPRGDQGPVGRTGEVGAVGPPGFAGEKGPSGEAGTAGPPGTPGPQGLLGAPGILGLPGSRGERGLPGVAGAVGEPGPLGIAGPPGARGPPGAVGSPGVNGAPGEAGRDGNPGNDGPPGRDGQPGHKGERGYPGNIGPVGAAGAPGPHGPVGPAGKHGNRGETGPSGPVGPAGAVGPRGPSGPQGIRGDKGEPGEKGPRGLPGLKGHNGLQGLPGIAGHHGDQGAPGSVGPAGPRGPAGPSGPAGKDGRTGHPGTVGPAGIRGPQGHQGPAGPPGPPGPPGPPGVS

Q: With “matrix metalloproteinase-1 (MMP-1), activated with 2 mM APMA” as the substance, how does the “reduction in the full length alpha1(I) and alpha2(I) chains (SDS-PAGE, band quantitation)” value read?
A: The value was “an approximately 7.4-fold (over 80%) reduction in the full length of these chains when collagen was treated with MMP-1”.
